Tests used:
[1] = tested on: Mouse bEnd.3 endothelial cells; test: Phosphatidylserine induction by hydrogen peroxide; type: cell-based
Method: Mouse bEnd.3 endothelial cells were seeded at an initial density of 50,000 cells/well. Twenty-fours later cells were incubated with increasing concentrations of H2O2 (from 10 μM to 500 μM) for 1 hour at 37° C. or left untreated. At the end of the incubation, cells were washed 3 times with PBS containing 0.2% gelatin and fixed with 0.25% glutaraldehyde. Identical wells were either stained with anti-PS IgM or trypsinized and evaluated for viability by the Trypan Blue exclusion test. For the anti-PS staining, after blocking with 2% gelatin for 10 min., cells were incubated with 2 μg/ml of anti-PS antibody, followed by detection with anti-mouse IgM-HRP conjugate.

Mouse endothelial cells = test: TNFα, cell based two stage coagulation assay
Method: Mouse endothelial cells were seeded in 48 well tissue culture plates and allowed to adhere overnight. Cells were stimulated with TNFα at the following concentrations: 500 U/ml 100 U/ml; 20 U/ml; 4 U/ml; 0.8 U/ml 0.16 U/ml; and with medium only.
Endothelial cells were also tested for coagulant activity in a cell based two stage coagulation assay. After incubation with TNFα, cells were washed and incubated with coagulation factor mix (0.5 μg/ml factor VIIa in a mix containing 2.8 μg/ml factor IX, 3.4 μg/ml factor X, 50 μM phospholipids in calcium buffer). The supernatant of wells was transferred into a 96 well ELISA plate. Substrate S2765 was added and Factor Xa generation measured.

[2] = tested on: tissue factor on the surface of HUVEC cells; test: FACS analysis of tissue factor expression on HUVEC; type: cell-based, human; settings: TNFα 500 U/ml, LPS 10 μg/ml, VEGF 1 nM; 6 h
Method: To analyze tissue factor expression on the surface of endothelial cells, HUVEC cells were incubated with TNFα (500 U/ml), LPS (10 μg/ml) or vascular endothelial growth factor (VEGF, 1 nM) alone or in combination for 6 h at 37°. Cells were then detached and stained for surface expression of human tissue factor with a sheep-anti-human tissue factor antibody (Haemochrom, Essen, Germany) and an appropriate FITC-conjugated secondary antibody. Fluorescent cells were detected on a flow cytometer (Becton Dickinson, San Jose, Calif.).

bEnd 3 cells = test: Cell bound coagulation assay on stimulated bEnd 3 endothelial cells (factor Xa generation); type: cell-based, murine
[3] = target: T1, recombinant human VEGF (VEGF165) (human, UniProt P15692-4 27-191, biotinylated in the capture and competition ELISAs); test: capture ELISA, antibody-coated wells, biotinylated VEGF titrated
T1 construct: also called free VEGF; VEGF-biotin

VEGF:Flk-1 complex = target: T2, VEGF:Flk-1 complex (human; mouse, UniProt P15692 27-191; P35918 20-762, biotinylated); test: capture ELISA, antibody-coated wells, soluble VEGF:sFlk-1-biotin titrated
T2 construct: Formed overnight at 4 C at a molar ratio of sFlk-1 to VEGF of 2.5:1; also called VEGF:receptor complex; VEGF:sFlk-1

[4] = target: T1, recombinant human VEGF (VEGF165); test: competition ELISA, 1 nM VEGF on VEGFR1 (Flt-1/Fc) wells, 1000 fold molar excess of 2C3
[5] = target: T1, recombinant human VEGF (VEGF165); test: competition ELISA, 1 nM VEGF on VEGFR1 (Flt-1/Fc) wells, 100 fold molar excess of 2C3
A20 lymphoma cells = test: In vitro coagulation assay on A20 cells with B21-2/10H10 capture antibody; type: cell-based, mouse; settings: for concentration at which plasma coagulated in 50 seconds: bound via B21-2/10H10 to A20 cells; for coagulation times versus tTF219 and Factor VIIa at the same concentrations: Factor VIIa at 1 nM or greater
[6] = tested on: HT29 (human colorectal carcinoma) xenograft; test: HT29 xenograft necrosis after tTF constructs with Factor VIIa; parameters: species or system BALB/c nu/nu mice; settings: mouse, in vivo, iv
[7] = tested on: factor X to Xa conversion; test: Factor Xa production assay on A20 cells; type: cell-based; settings: Factors II, VII and IX present

T1 sequence (P15692 other isoform, or with tags, fused parts or gaps limits assumed): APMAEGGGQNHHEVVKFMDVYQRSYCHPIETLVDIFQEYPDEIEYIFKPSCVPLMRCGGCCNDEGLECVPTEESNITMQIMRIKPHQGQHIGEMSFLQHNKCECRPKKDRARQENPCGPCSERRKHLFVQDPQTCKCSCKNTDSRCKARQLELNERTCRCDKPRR
T2 sequence (P15692 other isoform, or with tags, fused parts or gaps limits assumed, chain 1 of 2): as the sequence (P15692 other isoform, or with tags, fused parts or gaps limits assumed) above
T2 sequence (P35918 20-762 limits assumed, chain 2 of 2): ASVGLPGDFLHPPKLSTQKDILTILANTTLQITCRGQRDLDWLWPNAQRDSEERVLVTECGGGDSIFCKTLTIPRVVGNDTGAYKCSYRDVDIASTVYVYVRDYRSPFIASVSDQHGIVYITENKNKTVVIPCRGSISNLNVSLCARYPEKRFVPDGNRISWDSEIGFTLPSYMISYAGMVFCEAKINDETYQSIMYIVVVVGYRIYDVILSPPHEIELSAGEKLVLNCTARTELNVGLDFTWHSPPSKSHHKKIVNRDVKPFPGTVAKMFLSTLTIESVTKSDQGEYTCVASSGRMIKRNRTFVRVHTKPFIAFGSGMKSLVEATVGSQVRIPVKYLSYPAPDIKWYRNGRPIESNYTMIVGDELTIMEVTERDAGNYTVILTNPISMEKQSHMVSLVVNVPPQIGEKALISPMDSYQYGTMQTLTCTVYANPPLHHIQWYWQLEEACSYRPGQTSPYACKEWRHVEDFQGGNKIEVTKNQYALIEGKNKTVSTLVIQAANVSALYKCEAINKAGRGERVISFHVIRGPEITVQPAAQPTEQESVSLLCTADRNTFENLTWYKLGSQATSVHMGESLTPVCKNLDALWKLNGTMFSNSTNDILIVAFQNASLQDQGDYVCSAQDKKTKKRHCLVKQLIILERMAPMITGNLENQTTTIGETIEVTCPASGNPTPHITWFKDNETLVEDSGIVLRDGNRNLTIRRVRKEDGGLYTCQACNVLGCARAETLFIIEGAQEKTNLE

Molecule: OO [H2O2]
- cells with PS detected at the cell surface ([1]; concentrations as low as 20 μM): about 50%
- cell viability ([1]; low levels of H2O2 (lower than 100 μM), identical to untreated): 95%

Molecule: TNFα
- fold lower dose for coagulant effect than for VCAM-1 upregulation (Mouse endothelial cells): 125 fold
- TNFα at which an increase in comparison to the negative control could be detected (Mouse endothelial cells; coagulation assay): 0.16 U/ml
- tissue factor expression on the surface of endothelial cells [2]: upregulated
- Factor Xa generation (bEnd 3 cells; stimulation with TNFα (500 U/ml), then incubation with labelled agent (label TNFα = medium only), 0.5 μg/ml factor VIIa): 0.35 nkatS2222
- Factor Xa generation due to Factor VIIa production (bEnd 3 cells; stimulation with TNFα (label TNFα = medium only), 2 μg/ml factor VII and 0.01 μg/ml factor VIIa, factor VII-only values subtracted): 1.23 nkatS2222

Molecule: VEGF
- tissue factor expression on the surface of endothelial cells [2]: upregulated

B1: anti-VEGF antibody 2C3 (antibody, V domains shown)
VH: QVQLQESGPELVKPGASVKMSCKASGYTFTSYVFHWVKQKPGQGLEWIGYINPYNDVTKYNEKFKGKATLTSDKSSSTAYMELSSLTSEDSAVYYCASYYGSSYGYYAMDDWGQGTTVTVSS
VL: DIQLTQSPASLSVSAGEKVTMSCKSSQSLLNSGNQKNYLAWYQQKPGQPPKLLIHGASTRESGVPDRFTGSGSGTDFTLTISSVQAEDLAVYYCQNDYSYPLTFGAGTKLELKR
- EC50 [3]: 1 nM
- EC50 (VEGF:Flk-1 complex): 150 nM
- percent of VEGF bound to VEGFR1-coated wells relative to no 2C3 [4]: 105%
- percent of VEGF bound to VEGFR1-coated wells relative to no 2C3 [5]: 92%

B2: H6-tTF219-cys-C′: tTF219 with (His)6 tag and a Cys after amino acid 219 (protein)
chain: HHHHHHAMALVPRGSGTTNTVAAYNLTWKSTNFKTILEWEPKPVNQVYTVQISTKSGDWKSKCFYTTDTECDLTDEIVKVKQTYLARVFSYPAGNVESTGSAGEPLYENSPEFTPYLETNLGQPTIQSFEQVGTKVNVTVEDRTLVRRNNTFLSLRDVFGKDLIYTLYYWKSSSSGKKTAKTNTNEFLIDVDKGENYCFSVQAVIPSRTVNRKSTDSPVECMGQEKGEFREC
- concentration at which plasma coagulated in 50 seconds (A20 lymphoma cells): 3 nM

B3: Factor VIIa: recombinant human Factor VIIa (protein)
chain: ANAFLEELRPGSLERECKEEQCSFEEAREIFKDAERTKLFWISYSDGDQCASSPCQNGGSCKDQLQSYICFCLPAFEGRNCETHKDDQLICVNENGGCEQYCSDHTGTKRSCRCHEGYSLLADGVSCTPTVEYPCGKIPILEKRNASKPQGRIVGGKVCPKGECPWQVLLLVNGAQLCGGTLINTIWVVSAAHCFDKIKNWRNLIAVLGEHDLSEHDGDEQSRRVAQVIIPSTYVPGTTNHDIALLRLHQPVVLTDHVVPLCLPERTFSERTLAFVRFSLVSGWGQLLDRGATALELMVLNVPRLMTQDCLQQSRKVGDSPNITEYMFCAGYSDGSKDSCKGDSGGPHATHYRGTWYLTGIVSWGQGCATVGHFGVYTRVSQYIEWLQKLMRSEPRPGVLLRAPFP
- necrosis, average area as percentage of total tumor area [6]: some necrosis

B4: tTF219 (G164A): tTF219 with amino acid 164 (Gly) replaced by Ala (protein)
chain: GSGTTNTVAAYNLTWKSTNFKTILEWEPKPVNQVYTVQISTKSGDWKSKCFYTTDTECDLTDEIVKDVKQTYLARVFSYPAGNVESTGSAGEPLYENSPEFTPYLETNLGQPTIQSFEQVGTKVNVTVEDERTLVRRNNTFLSLRDVFGKDLIYTLYYWKSSSSAKKTAKTNTNEFLIDVDKGENYCFSVQAVIPSRTVNRKSTDSPVECMGQEKGEFRE
- necrosis, average area as percentage of total tumor area [6]: some necrosis
- coagulation times versus tTF219 and Factor VIIa at the same concentrations (A20 lymphoma cells): only marginally slower coagulation times

B5: tTF219 (W158R) (protein)
chain: GSGTTNTVAAYNLTWKSTNFKTILEWEPKPVNQVYTVQISTKSGDWKSKCFYTTDTECDLTDEIVKDVKQTYLARVFSYPAGNVESTGSAGEPLYENSPEFTPYLETNLGQPTIQSFEQVGTKVNVTVEDERTLVRRNNTFLSLRDVFGKDLIYTLYYRKSSSSGKKTAKTNTNEFLIDVDKGENYCFSVQAVIPSRTVNRKSTDSPVECMGQEKGEFRE
- coagulation times versus tTF219 and Factor VIIa at the same concentrations (A20 lymphoma cells): only marginally slower coagulation times

B6: H6-tTF220-cys-C′: tTF with Ile-Cys after amino acid 219, (His)6 tag (protein)
chain: HHHHHHAMALVPRGSGTTNTVAAYNLTWKSTNFKTILEWEPKPVNQVYTVQISTKSGDWKSKCFYTTDTECDLTDEIVKDVKQTYLARVFSYPAGNVESTGSAGEPLYENSPEFTPYLETNLGQPTIQSFEQVGTKVNVTVEDERTLVRRNNTFLSLRDVFGKDLIYTLYYWKSSSSGKKTAKTNTNEFLIDVDKGENYCFSVQAVIPSRTVNRKSTDSPVECMGQEKGEFRE
- concentration at which plasma coagulated in 50 seconds (A20 lymphoma cells): 0.5 nM

B7: H6-tTF221-cys-C′: tTF with Ile-Phe-Cys after amino acid 219, (His)6 tag (protein)
chain: HHHHHHAMALVPRGSGTTNTVAAYNLTWKSTNFKTILEWEPKPVNQVYTVQISTKSGDWKSKCFYTTDTECDLTDEIVKDVKQTYLARVFSYPAGNVESTGSAGEPLYENSPEFTPYLETNLGQPTIQSFEQVGTKVNVTVEDERTLVRRNNTFLSLRDVFGKDLIYTLYYWKSSSSGKKTAKTNTNEFLIDVDKGENYCFSVQAVIPSRTVNRKSTDSPVECMGQEKGEFRE
- concentration at which plasma coagulated in 50 seconds (A20 lymphoma cells): 0.5 nM
- concentration at which plasma coagulated in 50 seconds (A20 lymphoma cells; listed as H6-tTF221-cys-C′ monomer): 1 nM

B8: H6-tTF221-cys-C′ dimer: chemically conjugated disulfide dimer of H6-tTF221-cys-C′ (protein)
chain: HHHHHHAMALVPRGSGTTNTVAAYNLTWKSTNFKTILEWEPKPVNQVYTVQISTKSGDWKSKCFYTTDTECDLTDEIVKDVKQTYLARVFSYPAGNVESTGSAGEPLYENSPEFTPYLETNLGQPTIQSFEQVGTKVNVTVEDERTLVRRNNTFLSLRDVFGKDLIYTLYYWKSSSSGKKTAKTNTNEFLIDVDKGENYCFSVQAVIPSRTVNRKSTDSPVECMGQEKGEFRE
- fold less active at inducing coagulation of plasma than tTF219 / unconjugated or monomeric form (A20 lymphoma cells): 4 fold

B9: IgG-H6-N′-cys-tTF219: one molecule of IgG linked via SMPT to one or two molecules of H6-N′-cys-tTF219 (conjugate)
chain: HHHHHHAMALVPRGSCGTTNTVAAYNLTWKSTNFKTILEWEPKPVNQVYTVQISTKSGDWKSKCFYTTDTECDLTDEIVKDVKQTYLARVFSYPAGNVESTGSAGEPLYENSPEFTPYLETNLGQPTIQSFEQVGTKVNVTVEDERTLVRRNNTFLSLRDVFGKDLIYTLYYWKSSSSGKKTAKTNTNEFLIDVDKGENYCFSVQAVIPSRTVNRKSTDSPVECMGQEKGEFRE
modifications: left off: large carriers
- activity at inducing Xa formation relative to H6-N′-cys-tTF219 (fold less active) [7]: 2 fold
- fold less active at inducing coagulation of plasma than tTF219 / unconjugated or monomeric form (A20 lymphoma cells): 5 fold
- concentration at which plasma coagulated in 50 seconds (A20 lymphoma cells): 5 nM

B10: Fab′-H6-N′-cys-tTF219: Fab′ fragment disulfide-linked to H6-N′-cys-tTF219 (conjugate)
chain: HHHHHHAMALVPRGSCGTTNTVAAYNLTWKSTNFKTILEWEPKPVNQVYTVQISTKSGDWKSKCFYTTDTECDLTDEIVKDVKQTYLARVFSYPAGNVESTGSAGEPLYENSPEFTPYLETNLGQPTIQSFEQVGTKVNVTVEDERTLVRRNNTFLSLRDVFGKDLIYTLYYWKSSSSGKKTAKTNTNEFLIDVDKGENYCFSVQAVIPSRTVNRKSTDSPVECMGQEKGEFRE
modifications: left off: another chain or arm of the molecule; large carriers
- activity at inducing Xa formation relative to H6-N′-cys-tTF219 (fold less active) [7]: as active as

From patent publication US20030139374A1 (University of Texas, published 2003)
